We go through two molecules from article PMC2063547 (The Journal of Cell Biology, 2006).

The target in experiment [1] is full-length human αIIb cytoplasmic tail peptide (human). In words: ELISA.
Experiment [2] addresses T1, calcium and integrin binding protein 1 (CIB1), recombinant (human, UniProt Q99828 1-191).
T1 sequence (looked up): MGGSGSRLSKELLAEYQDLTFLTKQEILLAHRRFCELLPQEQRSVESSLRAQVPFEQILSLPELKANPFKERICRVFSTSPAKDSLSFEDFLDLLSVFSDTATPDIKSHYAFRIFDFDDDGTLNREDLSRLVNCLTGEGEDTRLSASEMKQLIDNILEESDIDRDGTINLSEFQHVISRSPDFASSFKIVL
In words: ELISA. In general terms: An ELISA detects its analyte on a solid surface through an enzyme-linked reagent.

In general, IC50 refers to the point on the concentration scale where inhibition reaches its midpoint. Read a high IC50 as weaker potency in that assay. “talin head domain (THD), recombinant (domain or fragment)”: the half-maximal inhibitory concentration (IC50) in experiment [1] was determined as 25 nM.

B1: full-length human αIIb cytoplasmic tail peptide (peptide)
peptide: LVLAMWKVGFFKRNRPPLEEDDEEGQ
With B1, in experiment [2], the binding result was “binds”.
